Data published in patent US20180346564A1 (TEIJIN PHARMA, published 2018).
Positions count from the first letter of the chain named. Names may count otherwise. [ ]: non-standard residue; d: D form. pT = C[C@@H](OP(=O)(O)O)[C@H](N)C(=O)O; pS = N[C@@H](COP(=O)(O)O)C(=O)O

B1: humanized antibody L48H61 (antibody, human IgG1, kappa, V domains shown)
VH: EVQLVESGGGLVQPGGSLRLSCAASGFTFNSFALNWVRQAPGKGLEWVVHIRSKTNNYATFYADSVKDRFTVSRDDSKNTAYLQMNSLKTEDTATYYCVRRGPRDSWFGYWGQGTLVTVSS
VL: DIVMTQSPLSLPVTLGDPASISCRSSQNIVHSNGNTYLEWYQQKPGQSPQLLIYTVSNRFSGVPDRFSGSGSGTDFTLKISRVEAEDLGVYYCFQGSHLPLTFGGGTKVEIKR
notes: VL48/VH61, human IgG1/kappa
B2: humanized antibody L48H62 (antibody, human IgG1, kappa, V domains shown)
VH: B1 VH with T28A
VL: B1 VL
notes: VL48/VH62, human IgG1/kappa
B3: humanized antibody L48H64 (antibody, human IgG1, kappa, V domains shown)
VH: B1 VH with D64A, K78Q
VL: B1 VL
notes: VL48/VH64, human IgG1/kappa
B4: humanized antibody L50H11 (antibody, human IgG1, kappa, V domains shown)
VH: B1 VH with N30S, V49G, D64A, K78Q
VL: B1 VL with Q50R
notes: VL50/VH11, human IgG1/kappa
B5: Humanized × [MAPT_H] mAb (Ta1505 VL46/VH11) IgG4 S228P/Kappa (CX) (antibody)
heavy: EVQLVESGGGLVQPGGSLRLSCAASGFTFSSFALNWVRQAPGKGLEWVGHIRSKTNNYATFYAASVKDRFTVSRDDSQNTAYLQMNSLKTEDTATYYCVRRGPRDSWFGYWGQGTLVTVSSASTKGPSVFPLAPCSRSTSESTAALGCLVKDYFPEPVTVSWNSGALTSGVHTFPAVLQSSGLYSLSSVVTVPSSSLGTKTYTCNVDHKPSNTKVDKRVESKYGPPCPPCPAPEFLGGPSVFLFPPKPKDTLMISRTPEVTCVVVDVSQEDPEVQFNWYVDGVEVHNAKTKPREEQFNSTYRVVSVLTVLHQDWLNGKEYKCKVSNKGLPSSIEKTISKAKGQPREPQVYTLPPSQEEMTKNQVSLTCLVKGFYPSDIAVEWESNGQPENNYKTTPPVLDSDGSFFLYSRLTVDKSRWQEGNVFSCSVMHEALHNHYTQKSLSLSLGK
light: DIVMTQSPLSLPVTLGEPASISCRSSQSIVHSNGNTYLEWYLQKPGQSPQLLIYTVSNRFSGVPDRFSGSGSGTDFTLKISRVEAEDLGVYYCFQGSHLPLTFGGGTKVEIKRTVAAPSVFIFPPSDEQLKSGTASVVCLLNNFYPREAKVQWKVDNALQSGNSQESVTEQDSKDSTYSLSSTLTLSKADYEKHKVYACEVTHQGLSSPVTKSFNRGEC

Target: T1, Peptide No. 1, pS46, H-GLKE(pS)PLQT-OH (human, SMILES CC(C)C[C@H](NC(=O)CN)C(=O)N[C@@H](CCCCN)C(=O)N[C@@H](CCC(=O)O)C(=O)N[C@@H](COP(=O)(O)O)C(=O)N1CCC[C@H]1C(=O)N[C@@H](CC(C)C)C(=O)N[C@@H](CCC(N)=O)C(=O)N[C@H](C(=O)O)[C@@H](C)O)
T1 peptide: H-GLKE[pS]PLQT-OH
Test: ELISA, coated peptide
Method in brief: (§1)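 Wells were coated overnight at 4 °C with 50 μL of peptide, or its bovine serum albumin or keyhole limpet hemocyanin conjugate, at 1 μg/mL in cold PBS, then blocked overnight at 4 °C with 3% BSA-PBS. Purified antibody at 150 ng/mL in 3% BSA-PBS was applied for 90 minutes at room temperature, followed by alkaline phosphatase-labelled goat anti-human IgG (H+L) diluted 2000-fold for 60 minutes. Antibody binding was recorded as absorbance. After 40 minutes of pNPP development, plates were read at 405 nm against a 550 nm reference.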

Binder | binding result
B1 | no binding (tested: OD value <0.5; antibody 150 ng/mL)
B2 | no binding (tested: OD value <0.5; antibody 150 ng/mL)
B3 | no binding (tested: OD value <0.5; antibody 150 ng/mL)
B4 | no binding (tested: OD value <0.5; antibody 150 ng/mL)

Target: T2, Peptide No. 2, pS199, H-SGYS(pS)PGSPGC-OH (human, SMILES N[C@@H](CO)C(=O)NCC(=O)N[C@@H](Cc1ccc(O)cc1)C(=O)N[C@@H](CO)C(=O)N[C@@H](COP(=O)(O)O)C(=O)N1CCC[C@H]1C(=O)NCC(=O)N[C@@H](CO)C(=O)N1CCC[C@H]1C(=O)NCC(=O)N[C@@H](CS)C(=O)O)
T2 peptide: H-SGYS[pS]PGSPGC-OH
Test: ELISA, coated peptide
Method in brief: as §1

Binder | binding result
B1 | no binding (tested: OD value <0.5; antibody 150 ng/mL)
B2 | no binding (tested: OD value <0.5; antibody 150 ng/mL)
B3 | no binding (tested: OD value <0.5; antibody 150 ng/mL)
B4 | no binding (tested: OD value <0.5; antibody 150 ng/mL)

Target: T3, Peptide No. 3, pS202, H-SSPG(pS)PGTPC-OH (human, SMILES C[C@@H](O)[C@H](NC(=O)CNC(=O)[C@@H]1CCCN1C(=O)[C@H](COP(=O)(O)O)NC(=O)CNC(=O)[C@@H]1CCCN1C(=O)[C@H](CO)NC(=O)[C@@H](N)CO)C(=O)N1CCC[C@H]1C(=O)N[C@@H](CS)C(=O)O)
T3 peptide: H-SSPG[pS]PGTPC-OH
Test: ELISA, coated peptide
Method in brief: as §1

Binder | binding result
B1 | no binding (tested: OD value <0.5; antibody 150 ng/mL)
B2 | no binding (tested: OD value <0.5; antibody 150 ng/mL)
B3 | no binding (tested: OD value <0.5; antibody 150 ng/mL)
B4 | no binding (tested: OD value <0.5; antibody 150 ng/mL)

Target: T4, Peptide No. 4, pT212/pS214, H-GCGSPGTPGSRSR(pT)P(pS)LPTPPTREPK-OH (human, phosphothreonine (pT) at peptide position 14 (tau Thr212); phosphoserine (pS) at peptide position 16 (tau Ser214))
T4 peptide: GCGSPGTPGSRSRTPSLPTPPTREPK
Test: ELISA, coated peptide
Method in brief: as §1

Binder | binding result
B1 | no binding (tested: OD value <0.5; antibody 150 ng/mL)
B2 | no binding (tested: OD value <0.5; antibody 150 ng/mL)
B3 | no binding (tested: OD value <0.5; antibody 150 ng/mL)
B4 | no binding (tested: OD value <0.5; antibody 150 ng/mL)

Target: T5, Peptide No. 5, pT217, H-GC-GSRSRTPSLP(pT)PPTREPKKVAVV-OH (human, phosphothreonine (pT) at peptide position 13 (tau Thr217))
T5 peptide: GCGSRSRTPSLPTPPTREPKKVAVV
Test: ELISA, coated peptide
Method in brief: as §1

Binder | binding result
B1 | no binding (tested: OD value <0.5; antibody 150 ng/mL)
B2 | no binding (tested: OD value <0.5; antibody 150 ng/mL)
B3 | no binding (tested: OD value <0.5; antibody 150 ng/mL)
B4 | no binding (tested: OD value <0.5; antibody 150 ng/mL)

Target: T6, Peptide No. 6, pT231, H-KVAVVR(pT)PPKSPS-OH (human)
T6 peptide: H-KVAVVR[pT]PPKSPS-OH
Test: ELISA, coated peptide
Method in brief: as §1

Binder | binding result
B1 | no binding (tested: OD value <0.5; antibody 150 ng/mL)
B2 | no binding (tested: OD value <0.5; antibody 150 ng/mL)
B3 | no binding (tested: OD value <0.5; antibody 150 ng/mL)
B4 | no binding (tested: OD value <0.5; antibody 150 ng/mL)

Target: T7, Peptide No. 7, pS396/pS400/pS404, H-GC-RENAKAKTDHGAEIVYK(pS)PVV(pS)GDT(pS)PRHL-OH (human, phosphoserine (pS) at peptide positions 20, 24 and 28 (tau Ser396, Ser400, Ser404))
T7 peptide: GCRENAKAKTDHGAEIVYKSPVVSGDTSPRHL
Test: ELISA, coated peptide
Method in brief: as §1

Binder | binding result
B1 | no binding (tested: OD value <0.5; antibody 150 ng/mL)
B2 | no binding (tested: OD value <0.5; antibody 150 ng/mL)
B3 | no binding (tested: OD value <0.5; antibody 150 ng/mL)
B4 | no binding (tested: OD value <0.5; antibody 150 ng/mL)

Target: T8, Peptide No. 8, pS412, H-NV(pS)STGSC-OH (human, SMILES CC(C)[C@H](NC(=O)[C@@H](N)CC(N)=O)C(=O)N[C@@H](COP(=O)(O)O)C(=O)N[C@@H](CO)C(=O)N[C@H](C(=O)NCC(=O)N[C@@H](CO)C(=O)N[C@@H](CS)C(=O)O)[C@@H](C)O)
T8 peptide: H-NV[pS]STGSC-OH
Test: ELISA, coated peptide
Method in brief: as §1

Binder | binding result
B1 | no binding (tested: OD value <0.5; antibody 150 ng/mL)
B2 | no binding (tested: OD value <0.5; antibody 150 ng/mL)
B3 | no binding (tested: OD value <0.5; antibody 150 ng/mL)
B4 | no binding (tested: OD value <0.5; antibody 150 ng/mL)

Target: Ser413 phosphorylated tau protein (pSer413-Tau) derived from Alzheimer's disease patient brain homogenate (human, UniProt P10636-8 2-441, limits assumed, phosphoserine at Ser413 (numbering of SEQ ID NO: 1))
Test: cell-based or functional assay

Sequence of Ser413 phosphorylated tau protein (pSer413-Tau) derived from Alzheimer's disease patient brain homogenate (P10636 other isoform, or with tags, fused parts or gaps limits assumed): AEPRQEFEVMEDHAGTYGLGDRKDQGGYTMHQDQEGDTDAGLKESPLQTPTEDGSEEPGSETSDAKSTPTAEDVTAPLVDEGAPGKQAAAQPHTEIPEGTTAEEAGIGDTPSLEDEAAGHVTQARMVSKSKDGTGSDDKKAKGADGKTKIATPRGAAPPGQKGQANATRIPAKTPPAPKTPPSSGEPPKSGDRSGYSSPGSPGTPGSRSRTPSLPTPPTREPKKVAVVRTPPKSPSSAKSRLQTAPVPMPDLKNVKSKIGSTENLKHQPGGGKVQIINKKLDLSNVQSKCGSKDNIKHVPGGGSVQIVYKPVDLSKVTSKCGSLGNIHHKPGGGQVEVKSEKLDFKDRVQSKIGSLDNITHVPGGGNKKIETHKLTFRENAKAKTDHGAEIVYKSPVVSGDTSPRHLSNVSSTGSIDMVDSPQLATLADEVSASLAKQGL

Binder | IC50 of the fall of the AT8 AlphaLISA signal with the antibody concentration (signal falls from about 7500 to about 4400 at the highest concentration, about 400 nM; no lower plateau) [nM]
B5 | 175

Target: T9, His-tagged non-phosphorylated tau protein 4R0N (human, UniProt P10636 2-758)
T9 construct: Produced by Escherichia coli; negative control in SPR; also called ATGen Cat. No. ATGP0795
Test: SPR Biacore T200, antigen immobilized
Method: The binding affinities of the hyperphosphorylated tau protein 4R2N (hpTau), non-phosphorylated tau protein 4R0N, monophosphorylated tau peptide 1×P, triphosphorylated tau peptide 3×P, and non-phosphorylated tau peptide Non P with each antibody were measured with an SPR system Biacore T200 (GE Healthcare Japan), in accordance with the instruction manual for evaluation attached to the system.
The His-tagged hpTau or Tau proteins were each immobilized on a sensor chip using an HBS-N buffer (code No. BR-1003-69) as the immobilization reaction solution and allowing a nickel chloride solution to react with the NTA sensor chip for bonding Ni to NTA. Subsequently, the sensor chip was activated with a mixed solution of N-ethyl-N′-(3-dimethylaminopropyl)-carbodiimide hydrochloride (1-ethyl-3-(3-dimethylaminopropyl)carbodiimide hydrochloride: EDC) and N-hydroxysuccinimide (NHS). A solution of each of the His-tagged proteins, adjusted to a concentration of 100 to 500 ng/mL with a 4-(2-hydroxyethyl)-1-piperazineethanesulfonic acid (HEPES) buffer (0.01 M HEPES, 150 mM KCl, 2 mM DTT, 1 mM EDTA, pH 7.2), was applied to the sensor chip, whereby the protein was immobilized on the sensor chip through covalent bonds with the Ni-NTA. The remaining active NHS was blocked with ethanolamine, and Ni ions were removed with an EDTA solution (Ni-affinity amine coupling: see International Publication No. WO2005/022156). The antigen peptides (1×P, 3×P, and Non P) were each immobilized on a sensor chip by activating the NTA sensor chip with a mixed solution of N-ethyl-N′-(3-dimethylaminopropyl)-carbodiimide (EDC) hydrochloride and N-hydroxysuccinimide (NHS), and then applying a solution of the antigen peptide diluted with a 10 mM sodium acetate buffer (pH: 4 to 4.5) to 1 to 10 μM to the sensor chip, whereby the peptide was covalently bound to the sensor chip. The remaining active NHS was blocked with ethanolamine. Thus, sensor chips immobilized respectively with the proteins and peptides mentioned above were produced.
A CAPS buffer (pH 10.5) was applied to these sensor chips at 37° C. to stabilize the protein- or peptide-immobilized surfaces of the sensor chips.

T9 sequence (P10636 other isoform, or with tags, fused parts or gaps limits assumed): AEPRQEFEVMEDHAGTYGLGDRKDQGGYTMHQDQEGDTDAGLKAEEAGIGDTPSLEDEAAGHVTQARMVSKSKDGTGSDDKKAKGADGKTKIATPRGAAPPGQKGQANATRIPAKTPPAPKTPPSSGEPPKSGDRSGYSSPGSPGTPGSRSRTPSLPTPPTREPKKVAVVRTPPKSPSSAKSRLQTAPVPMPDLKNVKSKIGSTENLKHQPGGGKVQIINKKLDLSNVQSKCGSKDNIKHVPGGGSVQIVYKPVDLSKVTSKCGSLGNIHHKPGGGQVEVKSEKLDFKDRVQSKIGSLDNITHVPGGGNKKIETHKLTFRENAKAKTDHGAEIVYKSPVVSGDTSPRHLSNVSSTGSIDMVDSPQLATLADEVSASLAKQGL

Binder | binding result
B1 | no binding (tested: 0.2 to 1 nM)
B2 | no binding (tested: 0.2 to 1 nM)
B3 | no binding (tested: 0.2 to 1 nM)
B4 | no binding (tested: 0.2 to 1 nM)
